Assay results: publication PMC7299334, “Molecular basis of force-from-lipids gating in the mechanosensitive channel MscS” (eLife, 2019)

B1: E. coli small-conductance mechanosensitive channel MscS with N-terminal 6xHis tag (natural protein, UniProt P0C0S1 1-286, looked up)
chain: MEDLNVVDSINGAGSWLVANQALLLSYAVNIVAALAIIIVGLIIARMISNAVNRLMISRKIDATVADFLSALVRYGIIAFTLIAALGRVGVQTASVIAVLGAAGLAVGLALQGSLSNLAAGVLLVMFRPFRAGEYVDLGGVAGTVLSVQIFSTTMRTADGKIIVIPNGKIIAGNIINFSREPVRRNEFIIGVAYDSDIDQVKQILTNIIQSEDRILKDREMTVRLNELGASSINFVVRVWSNSGDLQNVYWDVLERIKREFDAAGISFPYPQMDVNFKRVKEDKAA
notes: Small-conductance mechanosensitive channel MscS, E. coli, full length; also called 6xHis-MscS-ND; MscS-ND; not shown: His6, N-terminal, kept
B2: MscS-Cryst (Δ2–26 MscS) (natural protein, E. coli, UniProt P0C0S1 1-286, looked up)
chain: MYAVNIVAALAIIIVGLIIARMISNAVNRLMISRKIDATVADFLSALVRYGIIAFTLIAALGRVGVQTASVIAVLGAAGLAVGLALQGSLSNLAAGVLLVMFRPFRAGEYVDLGGVAGTVLSVQIFSTTMRTADGKIIVIPNGKIIAGNIINFSREPVRRNEFIIGVAYDSDIDQVKQILTNIIQSEDRILKDREMTVRLNELGASSINFVVRVWSNSGDLQNVYWDVLERIKREFDAAGISFPYPQMDVNFKRVKEDKAA
notes: Small-conductance mechanosensitive channel MscS, E. coli, lacking the N-terminal anchor domain (residues 2-26 removed); The tag is surmised from the vector and from the statement that the purification was the same; also called MscS ∆2–27; MscS ∆1–27; source: E. coli MJF465 (pQE70), purified as the wild type, reconstituted in MSP1 E3D1 nanodiscs (POPC:POPG)

Target: the molecule itself
Test: cryo-EM structure; single particle cryo-EM of MscS in MSP1 E3D1 nanodiscs, POPC:POPG 4:1; 0.01% fluorinated octyl maltoside added; C7 symmetry in final refinement (the His-tagged sample also processed without symmetry, C1)

| Protein | stoichiometry N | binding result |
| --- | --- | --- |
| B1 | 7 | – |
| B2 | – | binds |
